In publication PMC9727766 (bioRxiv, 2022):

Columns and labels:
[1] = biological target: T1, SARS-CoV-2 S protein, C-terminally truncated (pSARS-CoV2-S_trunc), ancestral, on 293T cells (SARS-CoV-2 ancestral (Wuhan), UniProt P0DTC2); test: flow cytometry on cells
[2] = biological target: T1, SARS-CoV-2 S protein, C-terminally …; test: cell-based or functional assay
[3] = biological target: SARS-CoV-2 fusion peptide (FP) peptide 812…831 (SARS-CoV-2 ancestral, Biotin-Ahx at the N-terminus; C-terminal amidation); test: crystal structure

| Binder | fold increase of binding with soluble ACE2 [1] | IC50 of neutralisation of SARS-CoV-2 pseudovirus (ancestral) [2] | binding result [3] |
| --- | --- | --- | --- |
| fp.006 monoclonal antibody (IgG) (antibody, V domains shown) VH: EVQLVESGGGVVQPGGSLRLSCAASGFNFNNYALHWVRQAPGKGLEWVAIISYEARNKKYGVSVMGRFSISRDNSKSIMYLEMNSLRVEDTGVYYCARDLFLSDYDRSGYDPTRGGFDHWGQGTLVTVSS VL: EIVMTQSPATLSVSPGERATLSCRASQSVSSSLAWYQHRFGQAPRLLISGASTRATGIPGRFSGSGSGTEFTLTISSLQSEDVAVYYCQQYGDWPLVTFGGGTKVEIK | 5.8 fold | 0.737 mg/L |  |
| fp.006 Fab (Fab, V domains shown) VH: EVQLVESGGGVVQPGGSLRLSCAASGFNFNNYALHWVRQAPGKGLEWVAIISYEARNKKYGVSVMGRFSISRDNSKSIMYLEMNSLRVEDTGVYYCARDLFLSDYDRSGYDPTRGGFDHWGQGTLVTVSS VL: EIVMTQSPATLSVSPGERATLSCRASQSVSSSLAWYQHRFGQAPRLLISGASTRATGIPGRFSGSGSGTEFTLTISSLQSEDVAVYYCQQYGDWPLVTFGGGTKVEIK |  |  | binds |
| sd1.040 monoclonal antibody (IgG) (antibody, V domains shown) VH: QVQLVQSGAEVKKPGASVKVSCKASGYTFTSFYIHWVRQAPGQGLEWMGIIDPSGGSTSYPQKFQGRVTMTRDTSTSTVYMDLSSLRSEDTAVYYCTRDGSAGDNSWFDPWGQGTLVTVSS VL: not shown |  | 0.245 mg/L |  |
